The text below walks through data of article PMC4703963.

Conditions in all cases: remark: other sources report otherwise
In test [1] the target is Flag-tagged catalytic domain of PHD2 (181-426) (human), Q9GZT9. Put plainly: non-reducing SDS-PAGE with immunoblot; total cell lysates (1% IGEPAL, 150 mM NaCl, 50 mM Tris-HCl pH 7.9, no reducing agent) in sample buffer without β-ME; cells treated with H2O2 (50-200 uM), T-hydro (1-3 uM), diamide (0.1-1 mM), 10% FBS or expressing H-ras V12. (In general: A western blot detects proteins with antibodies after separation by electrophoresis.)

Test [2] deals with Prolyl hydroxylase domain protein 2 (PHD2), endogenous (human (endogenous in U2OS, H2030, A549)), Q9GZT9. The description is as above.
Test [3] addresses Wild-type HA-PHD2 purified from HEK293T cells (human), Q9GZT9. Put plainly: non-reducing SDS-PAGE with immunoblot; tagged PHD2 affinity-purified (Flag or HA gel, peptide elution) from H2O2-treated HEK293T cells, run without DTT.
The target in test [4] is Flag-tagged PHD2 purified from HEK293T cells (human), Q9GZT9. The test is described as above.
Test [5] deals with Flag-tagged PHD2 (with an HA-tagged copy of PHD2 in the co-immunoprecipitation) (human), Q9GZT9. Put plainly: non-reducing SDS-PAGE with immunoblot; total cell lysates (1% IGEPAL, 150 mM NaCl, 50 mM Tris-HCl pH 7.9, no reducing agent) in sample buffer without β-ME; cells treated with H2O2 (50-200 uM), T-hydro (1-3 uM), diamide (0.1-1 mM), 10% FBS or expressing H-ras V12.

B1: Flag-tagged catalytic domain of PHD2 (181-426), Q9GZT9 181-426 (domain or fragment)
chain: PNGQTKPLPALKLALEYIVPCMNKHGICVVDDFLGKETGQQIGDEVRALHDTGKFTDGQLVSQKSDSSKDIRGDKITWIEGKEPGCETIGLLMSSMDDLIRHCNGKLGSYKINGRTKAMVACYPGNGTGYVRHVDNPNGDGRCVTCIYYLNKDWDAKVSGGILRIFPEGKAQFADIEPKFDRLLFFWSDRRNPHEVQPAYATRYAITVWYFDADERARAKVKYLTGEKGVRVELNKPSDSVGKDVF
Usually stoichiometry N stands for the number of molecules, sites or subunits per partner or assembly. In the case of B1, the stoichiometry N in test [1] came to 2.

B2: Prolyl hydroxylase domain protein 2 (PHD2), endogenous, Q9GZT9 1-426 (natural protein)
chain: MANDSGGPGGPSPSERDRQYCELCGKMENLLRCSRCRSSFYCCKEHQRQDWKKHKLVCQGSEGALGHGVGPHQHSGPAPPAAVPPPRAGAREPRKAAARRDNASGDAAKGKVKAKPPADPAAAASPCRAAAGGQGSAVAAEAEPGKEEPPARSSLFQEKANLYPPSNTPGDALSPGGGLRPNGQTKPLPALKLALEYIVPCMNKHGICVVDDFLGKETGQQIGDEVRALHDTGKFTDGQLVSQKSDSSKDIRGDKITWIEGKEPGCETIGLLMSSMDDLIRHCNGKLGSYKINGRTKAMVACYPGNGTGYVRHVDNPNGDGRCVTCIYYLNKDWDAKVSGGILRIFPEGKAQFADIEPKFDRLLFFWSDRRNPHEVQPAYATRYAITVWYFDADERARAKVKYLTGEKGVRVELNKPSDSVGKDVF
In the case of B2, the stoichiometry N in test [2] was found to be 2.

B3: Wild-type HA-PHD2 purified from HEK293T cells, Q9GZT9 1-426 (natural protein)
chain: MANDSGGPGGPSPSERDRQYCELCGKMENLLRCSRCRSSFYCCKEHQRQDWKKHKLVCQGSEGALGHGVGPHQHSGPAPPAAVPPPRAGAREPRKAAARRDNASGDAAKGKVKAKPPADPAAAASPCRAAAGGQGSAVAAEAEPGKEEPPARSSLFQEKANLYPPSNTPGDALSPGGGLRPNGQTKPLPALKLALEYIVPCMNKHGICVVDDFLGKETGQQIGDEVRALHDTGKFTDGQLVSQKSDSSKDIRGDKITWIEGKEPGCETIGLLMSSMDDLIRHCNGKLGSYKINGRTKAMVACYPGNGTGYVRHVDNPNGDGRCVTCIYYLNKDWDAKVSGGILRIFPEGKAQFADIEPKFDRLLFFWSDRRNPHEVQPAYATRYAITVWYFDADERARAKVKYLTGEKGVRVELNKPSDSVGKDVF
In turn, B3 had a stoichiometry N in test [3] of 2.

B4: Flag-tagged PHD2 purified from HEK293T cells, Q9GZT9 1-426 (natural protein)
chain: MANDSGGPGGPSPSERDRQYCELCGKMENLLRCSRCRSSFYCCKEHQRQDWKKHKLVCQGSEGALGHGVGPHQHSGPAPPAAVPPPRAGAREPRKAAARRDNASGDAAKGKVKAKPPADPAAAASPCRAAAGGQGSAVAAEAEPGKEEPPARSSLFQEKANLYPPSNTPGDALSPGGGLRPNGQTKPLPALKLALEYIVPCMNKHGICVVDDFLGKETGQQIGDEVRALHDTGKFTDGQLVSQKSDSSKDIRGDKITWIEGKEPGCETIGLLMSSMDDLIRHCNGKLGSYKINGRTKAMVACYPGNGTGYVRHVDNPNGDGRCVTCIYYLNKDWDAKVSGGILRIFPEGKAQFADIEPKFDRLLFFWSDRRNPHEVQPAYATRYAITVWYFDADERARAKVKYLTGEKGVRVELNKPSDSVGKDVF
B4 gave a stoichiometry N in test [4] of 2.

B5: Flag-tagged PHD2 (with an HA-tagged copy of PHD2 in the co-immunoprecipitation), Q9GZT9 1-426 (natural protein)
chain: MANDSGGPGGPSPSERDRQYCELCGKMENLLRCSRCRSSFYCCKEHQRQDWKKHKLVCQGSEGALGHGVGPHQHSGPAPPAAVPPPRAGAREPRKAAARRDNASGDAAKGKVKAKPPADPAAAASPCRAAAGGQGSAVAAEAEPGKEEPPARSSLFQEKANLYPPSNTPGDALSPGGGLRPNGQTKPLPALKLALEYIVPCMNKHGICVVDDFLGKETGQQIGDEVRALHDTGKFTDGQLVSQKSDSSKDIRGDKITWIEGKEPGCETIGLLMSSMDDLIRHCNGKLGSYKINGRTKAMVACYPGNGTGYVRHVDNPNGDGRCVTCIYYLNKDWDAKVSGGILRIFPEGKAQFADIEPKFDRLLFFWSDRRNPHEVQPAYATRYAITVWYFDADERARAKVKYLTGEKGVRVELNKPSDSVGKDVF
For B5, the stoichiometry N in test [5] came out at 2.
